Results taken from patent publication US7723111.

Target: folate binding protein (FBP) (UniProt P15328)
Assay: cell-based or functional assay

UniProt P15328, sequence (P15328 25-234 limits assumed): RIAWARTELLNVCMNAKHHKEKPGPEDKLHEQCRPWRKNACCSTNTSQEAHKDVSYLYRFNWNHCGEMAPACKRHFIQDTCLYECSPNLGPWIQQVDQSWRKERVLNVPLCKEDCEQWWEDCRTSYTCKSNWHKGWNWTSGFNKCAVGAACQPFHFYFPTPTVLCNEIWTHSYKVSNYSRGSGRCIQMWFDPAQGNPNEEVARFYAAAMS

IFN-γ secretion (pg/ml) of MOv-γ transduced mouse T cells in response to 24JK-FBP cells (parental 24JK: 0; non-transduced T cells: 0): 5200 pg/mL
IFN-γ secretion (pg/ml) of MOv-γ transduced mouse T cells in response to IGROV (ovarian FBP +) cells (non-transduced T cells: 0): 37500 pg/mL
share of MOv-γ transduced human T cell clones (patient 410) reactive against the ovarian cancer target: 67 % of clones
Substance: MOv-γ chimeric receptor
